Reference: US20190359687A1 (Bayer, published 2019)

Columns and labels:
[1] = biological target: T1, human glycophorin A on human red blood cells (human, UniProt P02724 20-150); assay: partition to human RBC, vWF deficient plasma, 1 min
T1 construct: whole, on cells; also called human GPA; huGPA
T1 sequence (looked up): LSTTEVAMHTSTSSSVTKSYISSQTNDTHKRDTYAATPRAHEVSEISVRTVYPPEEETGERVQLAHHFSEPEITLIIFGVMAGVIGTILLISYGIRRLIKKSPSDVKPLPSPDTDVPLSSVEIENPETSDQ

[2] = biological target: T1, human glycophorin A on human red blood …; assay: partition to human RBC, human HemA plasma, 30 min
[3] = biological target: T2, Cynomolgus monkey glycophorin A on Cynomolgus monkey red blood cells (Cynomolgus monkey); assay: partition to Cyno RBC, human HemA plasma, 15 min;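 further: FVIII fusion spiked at 1 IU/mL into RBC suspension at whole-blood density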
T2 construct: whole, on cells; also called Cyno GPA; Cyno RBC
Description: (§1) To evaluate partition to cynomolgus monkey or human red blood cells, whole blood was draw from Cynomolgus monkey or normal human volunteers in to anticoagulant with 4% sodium citrate (Sigma, St Louis, Mo.). The red blood cells were purified by layering the whole blood on to ficoll followed by low speed centrifugation. The supernatant containing plasma, platelets and white blood cells was discarded and the red blood cell pellet was resuspended in 10 pellet volumes of PBS (50 mM Phosphate buffer, pH7.4, 150 mM NaCl). The red blood cells were then pelleted by slow speed centrifugation and the red blood cells re-suspended in 10 volumes of PBS. This washing step was repeated 4 more times and the red blood cells finally resuspended in a volume of plasma from Hemophilia patients with less than 1% of normal levels of FVIII (GeorgeKing Bio-Medical, Overland Park, Kans.) to generate a total volume equal to the initial blood volume such that the RBC density was equal to that of normal whole blood. BDD and RBC targeted FVIII molecules were then spiked into RBC suspension in HemA plasma at 1 IU/mL, and incubated at room temperature for 2-3 hours with gentle rotation. […] An additional control was performed in which BDD or RBC targeted FVIII molecules were added at 11U/ml into the same human hemophilia A plasma and incubated for 5 minutes and 180 mins. These samples were used to determine the input FVIII activity in the presence of plasma which was used to calculate the percentage of the molecule that was bound to RBC. All plasma samples were then assayed together for FVIII activity using the Coatest SP assay (DiaPharma, Columbus, Ohio). The assay was performed following the manufacturer's instructions in a 96-well plate format. […] The plate was incubated at 37° C. for 10 minutes with shaking between each reagent addition.

[4] = biological target: T2, Cynomolgus monkey glycophorin A on …; assay: partition to Cyno RBC, human HemA plasma, 60 min;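 further: FVIII fusion spiked at 1 IU/mL into RBC suspension at whole-blood density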
[5] = biological target: T1, human glycophorin A on human red blood …; assay: partition to human RBC, human HemA plasma, 60 min
[6] = biological target: T1, human glycophorin A on human red blood …; assay: partition to human RBC, human HemA plasma, 15 min
[7] = biological target: T2, Cynomolgus monkey glycophorin A on …; assay: partition to Cyno RBC, human HemA plasma, 5 min;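 further: FVIII fusion spiked at 1 IU/mL into RBC suspension at whole-blood density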
[8] = biological target: T2, Cynomolgus monkey glycophorin A on …; assay: partition to Cyno RBC, human HemA plasma, 30 min;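 further: FVIII fusion spiked at 1 IU/mL into RBC suspension at whole-blood density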
Description: as §1

[9] = biological target: T2, Cynomolgus monkey glycophorin A on …; assay: partition to Cyno RBC, human HemA plasma, 1 min;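 further: FVIII fusion spiked at 1 IU/mL into RBC suspension at whole-blood density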
[10] = biological target: T1, human glycophorin A on human red blood …; assay: partition to human RBC, human HemA plasma, 120 min
Description: (§2) The supernatant containing plasma, platelets and white blood cells was discarded and the red blood cell pellet was resuspended in 10 pellet volumes of PBS (50 mM Phosphate buffer, pH7.4, 150 mM NaCl). The red blood cells were then pelleted by slow speed centrifugation and the red blood cells re-suspended in 10 volumes of PBS. This washing step was repeated 4 more times and the red blood cells finally resuspended in a volume of plasma from Hemophilia patients with less than 1% of normal levels of FVIII (GeorgeKing Bio-Medical, Overland Park, Kans.) to generate a total volume equal to the initial blood volume such that the RBC density was equal to that of normal whole blood. BDD and RBC targeted FVIII molecules were then spiked into RBC suspension in HemA plasma at 1 IU/mL, and incubated at room temperature for 2-3 hours with gentle rotation. […] An additional control was performed in which BDD or RBC targeted FVIII molecules were added at 11U/ml into the same human hemophilia A plasma and incubated for 5 minutes and 180 mins. These samples were used to determine the input FVIII activity in the presence of plasma which was used to calculate the percentage of the molecule that was bound to RBC. All plasma samples were then assayed together for FVIII activity using the Coatest SP assay (DiaPharma, Columbus, Ohio). The assay was performed following the manufacturer's instructions in a 96-well plate format. […] The plate was incubated at 37° C. for 10 minutes with shaking between each reagent addition. […] The amount of FVIII activity in the plasma reflects the amount of unbound FVIII. The FVIII activity of the same molecule spiked in to Hemophilia A plasma alone (no RBC) and incubated for 5 minutes was normalized to 100%.

[11] = biological target: T1, human glycophorin A on human red blood …; assay: partition to human RBC, vWF deficient plasma, 30 min
[12] = biological target: T1, human glycophorin A on human red blood …; assay: partition to human RBC, vWF deficient plasma, 60 min
[13] = biological target: T1, human glycophorin A on human red blood …; assay: partition to human RBC, vWF deficient plasma, 15 min
[14] = biological target: T1, human glycophorin A on human red blood …; assay: partition to human RBC, vWF deficient plasma, 120 min
[15] = biological target: T1, human glycophorin A on human red blood …; assay: partition to human RBC, human HemA plasma, 5 min
Description: as §2

[16] = biological target: T3, glycophorin A peptide GP5 (human, biotin at the N-terminus); assay: Octet, GP5 peptide on the probe, fusion protein in solution, 1:1 fit
T3 construct: Residues 42 to 61 of the human glycophorin A extracellular domain
T3 peptide: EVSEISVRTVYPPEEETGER

[17] = biological target: T1, human glycophorin A on human red blood …; assay: partition to human RBC, human HemA plasma, 120 min; remark: listed apart in the source
Description: as §2

[18] = biological target: T1, human glycophorin A on human red blood …; assay: partition to human RBC, human HemA plasma, 1 min
Description: as §2

[19] = biological target: T2, Cynomolgus monkey glycophorin A on …; assay: partition to Cyno RBC, human HemA plasma, 120 min;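 further: FVIII fusion spiked at 1 IU/mL into RBC suspension at whole-blood density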
Description: as §1

[20] = biological target: T1, human glycophorin A on human red blood …; assay: partition to human RBC, vWF deficient plasma, 5 min
[21] = biological target: T4, Cynomolgus monkey recombinant glycophorin A ectodomain (Cynomolgus monkey); assay: ELISA, Fab on coated recombinant cyno GPA ectodomain
T4 construct: extracellular domain

[22] = biological target: T5, native human glycophorin A protein (human, UniProt P02724 20-150); assay: ELISA, Fab on coated native human GPA
T5 construct: mature; also called Hu-nat GPA
T5 sequence (looked up): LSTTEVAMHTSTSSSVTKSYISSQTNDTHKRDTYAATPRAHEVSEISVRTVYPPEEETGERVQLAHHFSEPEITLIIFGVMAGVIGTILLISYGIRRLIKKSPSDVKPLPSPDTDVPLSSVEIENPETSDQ

[23] = biological target: T6, human glycophorin A on human red blood cells or red blood cell membranes (human, UniProt P02724 20-150); assay: ELISA, Fab on coated human RBC membranes
T6 construct: whole, on cells; also called hRBC; human RBC membranes
T6 sequence (looked up): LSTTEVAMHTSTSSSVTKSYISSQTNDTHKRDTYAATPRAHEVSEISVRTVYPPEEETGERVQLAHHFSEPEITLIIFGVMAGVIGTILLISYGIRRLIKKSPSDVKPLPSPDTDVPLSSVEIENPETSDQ

[24] = biological target: T7, Cynomolgus monkey glycophorin A on Cynomolgus monkey red blood cells or red blood cell membranes (Cynomolgus monkey); assay: ELISA, Fab on coated cyno RBC membranes
T7 construct: whole, on cells; also called Cyno RBC; Cynomolgus monkey RBC membranes

[25] = biological target: T8, recombinant human glycophorin A ectodomain protein (human, UniProt P02724 20-91); assay: ELISA, Fab on coated recombinant human GPA ectodomain
T8 construct: 72 amino acids of the extracellular region; also called Hu-rec GPA
T8 sequence: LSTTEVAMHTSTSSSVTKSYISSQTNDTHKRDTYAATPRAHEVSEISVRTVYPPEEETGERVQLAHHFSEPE

[26] = biological target: T6, human glycophorin A on human red blood …; assay: SPR (Biacore), Fab over human RBC membranes, 1:1 fit;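 further: human RBC membrane preparations captured on an L1 sensor surface, with antibody passed over them as analyte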
Description: Kinetic analysis of the antibody binding to human red blood cell membranes was also performed using surface plasmon resonance (SPR) using a Biacore instrument. In this assay membranes prepared from human red blood cells were attached to a L1 sensor matrix and antibodies were flowed over the RBC membranes.

B1: TPP-8741 FVIII-scFv fusion protein (other)
chain: ATRRYYLGAVELSWDYMQSDLGELPVDARFPPRVPKSFPFNTSVVYKKTLFVEFTDHLFNIAKPRPPWMGLLGPTIQAEVYDTVVITLKNMASHPVSLHAVGVSYWKASEGAEYDDQTSQREKEDDKVFPGGSHTYVWQVLKENGPMASDPLCLTYSYLSHVDLVKDLNSGLIGALLVCREGSLAKEKTQTLHKFILLFAVFDEGKSWHSETKNSLMQDRDAASARAWPKMHTVNGYVNRSLPGLIGCHRKSVYWHVIGMGTTPEVHSIFLEGHTFLVRNHRQASLEISPITFLTAQTLLMDLGQFLLFCHISSHQHDGMEAYVKVDSCPEEPQLRMKNNEEAEDYDDDLTDSEMDVVRFDDDNSPSFIQIRSVAKKHPKTWVHYIAAEEEDWDYAPLVLAPDDRSYKSQYLNNGPQRIGRKYKKVRFMAYTDETFKTREAIQHESGILGPLLYGEVGDTLLIIFKNQASRPYNIYPHGITDVRPLYSRRLPKGVKHLKDFPILPGEIFKYKWTVTVEDGPTKSDPRCLTRYYSSFVNMERDLASGLIGPLLICYKESVDQRGNQIMSDKRNVILFSVFDENRSWYLTENIQRFLPNPAGVQLEDPEFQASNIMHSINGYVFDSLQLSVCLHEVAYWYILSIGAQTDFLSVFFSGYTFKHKMVYEDTLTLFPFSGETVFMSMENPGLWILGCHNSDFRNRGMTALLKVSSCDKNTGDYYEDSYEDISAYLLSKNNAIEPRSFSQNGGGGSTGGTGGSSGGGTGSGGGGTGGSGGTDIQLTQSPSFLSASVGDRVTITCRASSSVRYIYWFQQKPGKAPKLLIYATSFRQSGVPSRFSGSGSGTEYTLTISSLQPEDFATYYCHQRNSFPYTFGQGTKLEIKGGGGSGGGGSGGGGSGGGGSEVQLVQSGAEVKKPGASVKVSCKASGYTFTTYAIHWVRQAPGQGLEWMGYINPSSGYTRYNPKFKGRVTMTRDKSTSTAYMELRSLRSDDTAVYYCWTGTRDYWGQGTTVTVSSGGGGSQNPPVLKRHQREITRTTLQSDQEEIDYDDTISVEMKKEDFDIYDEDENQSPRSFQKKTRHYFIAAVERLWDYGMSSSPHVLRNRAQSGSVPQFKKVVFQEFTDGSFTQPLYRGELNEHLGLLGPYIRAEVEDNIMVTFRNQASRPYSFYSSLISYEEDQRQGAEPRKNFVKPNETKTYFWKVQHHMAPTKDEFDCKAWAYFSDVDLEKDVHSGLIGPLLVCHTNTLNPAHGRQVTVQEFALFFTIFDETKSWYFTENMERNCRAPCNIQMEDPTFKENYRFHAINGYIMDTLPGLVMAQDQRIRWYLLSMGSNENIHSIHFSGHVFTVRKKEEYKMALYNLYPGVFETVEMLPSKAGIWRVECLIGEHLHAGMSTLFLVYSNKCQTPLGMASGHIRDFQITASGQYGQWAPKLARLHYSGSINAWSTKEPFSWIKVDLLAPMIIHGIKTQGARQKFSSLYISQFIIMYSLDGKKWQTYRGNSTGTLMVFFGNVDSSGIKHNIFNPPIIARYIRLHPTHYSIRSTLRMELMGCDLNSCSMPLGMESKAISDAQITASSYFTNMFATWSPSKARLHLQGRSNAWRPQVNNPKEWLQVDFQKTMKVTGVTTQGVKSLLTSMYVKEFLISSSQDGHQWTLFFQNGKVKVFQGNQDSFTPVVNSLDPPLLTRYLRIHPQSWVHQIALRMEVLGCEAQDLY
notes: The entry is the mature protein; mostly a 2 chain molecule; also called BDD-Bdom scFv; PPB 6559
percentage bound to human RBC [1]: 35.1% | percentage bound to human RBC [2]: 20.5% | % bound to Cyno RBC [3]: -12.5% | % bound to Cyno RBC [4]: -9.8% | percentage bound to human RBC [5]: 37.1% | percentage bound to human RBC [6]: 16.3% | % bound to Cyno RBC [7]: -19.3% | % bound to Cyno RBC [8]: -1.9% | % bound to Cyno RBC [9]: 0% | percentage bound to human RBC [10]: 52.8% | percentage bound to human RBC [11]: 92.4% | percentage bound to human RBC [12]: 93.3% | percentage bound to human RBC [13]: 88.3% | percentage bound to human RBC [14]: 93% | percentage bound to human RBC [15]: 13.8% | Kd [16]: 13.3 nM | koff [16]: 0.00465 s⁻¹ | kon [16]: 351000 M⁻¹ s⁻¹ | percentage bound to human RBC [17]: 52.8% | percentage bound to human RBC [18]: 0% | % bound to Cyno RBC [19]: -1.9% | percentage bound to human RBC [20]: 67.9%

B2: TPP-5702, Hu6C12-24 Fab variant VL: (S24R, A26S, S49A, P54Q, F95Y) (Fab, V domains shown)
VH: EVQLVQSGAEVKKPGASVKVSCKASGYTFTTYTIHWVRQAPGQGLEWIGYINPSSDYTRYNPKFKDRVTLTTDKSTSTAYMELRSLRSDDTAVYYCQTGTRDYWGQGTTVTVSS
VL: DIQLTQSPSFLSASVGDRVTITCRASSSVSYIYWFQQKPGKAPKLLIYATSTLQSGVPSRFSGSGSGTEYTLTISSLQPEDFATYYCHQRNSFPYTFGQGTKLEIKR
notes: Built on the parental Fab TPP-4935
binding in ELISA relative to parental Fab [21]: 1.1 relative to parental Fab | binding in ELISA relative to parental Fab [22]: 5.2 relative to parental Fab | binding in ELISA relative to parental Fab [23]: 10.2 relative to parental Fab | binding in ELISA relative to parental Fab [24]: 1.1 relative to parental Fab | binding in ELISA relative to parental Fab [25]: 4.3 relative to parental Fab | Kd [26]: 170 nM | koff [26]: 0.11 s⁻¹ | kon [26]: 650000 M⁻¹ s⁻¹

B3: TPP-5839, Hu6C12-24 Fab variant VL: (S24R, A26S, S49A, P54Q, F95Y); VH: (I48M, D66G, L70M, T72R) (Fab, V domains shown)
VH: EVQLVQSGAEVKKPGASVKVSCKASGYTFTTYTIHWVRQAPGQGLEWMGYINPSSDYTRYNPKFKGRVTMTRDKSTSTAYMELRSLRSDDTAVYYCQTGTRDYWGQGTTVTVSS
VL: DIQLTQSPSFLSASVGDRVTITCRASSSVSYIYWFQQKPGKAPKLLIYATSTLQSGVPSRFSGSGSGTEYTLTISSLQPEDFATYYCHQRNSFPYTFGQGTKLEIKR
notes: as for B2
binding in ELISA relative to parental Fab [21]: 1.2 relative to parental Fab | binding in ELISA relative to parental Fab [22]: 5.8 relative to parental Fab | binding in ELISA relative to parental Fab [23]: 5.8 relative to parental Fab | binding in ELISA relative to parental Fab [24]: 2.3 relative to parental Fab | binding in ELISA relative to parental Fab [25]: 4.7 relative to parental Fab | Kd [26]: 1.6 nM | koff [26]: 0.0035 s⁻¹ | kon [26]: 2.1e+06 M⁻¹ s⁻¹

B4: TPP-5835, Hu6C12-24 Fab variant VL: (S24R, A26S, S49A, P54Q, F95Y); VH: (I48M, L70M) (Fab, V domains shown)
VH: EVQLVQSGAEVKKPGASVKVSCKASGYTFTTYTIHWVRQAPGQGLEWMGYINPSSDYTRYNPKFKDRVTMTTDKSTSTAYMELRSLRSDDTAVYYCQTGTRDYWGQGTTVTVSS
VL: DIQLTQSPSFLSASVGDRVTITCRASSSVSYIYWFQQKPGKAPKLLIYATSTLQSGVPSRFSGSGSGTEYTLTISSLQPEDFATYYCHQRNSFPYTFGQGTKLEIKR
notes: as for B2
binding in ELISA relative to parental Fab [21]: 1.1 relative to parental Fab | binding in ELISA relative to parental Fab [22]: 5.2 relative to parental Fab | binding in ELISA relative to parental Fab [23]: 10.3 relative to parental Fab | binding in ELISA relative to parental Fab [24]: 1.4 relative to parental Fab | binding in ELISA relative to parental Fab [25]: 4.3 relative to parental Fab
